Changes are numbered by the printed parent chain.
B1: Hu001-14 Fab (clone 14, expressed in clone supernatant) (Fab, V domains shown)
VH: EVQLVQSGAEVKKPGASVKVSCKASGYTFTSYYMHWVRQAPGQGLEWMGIINPSGGSTSYAQKFQGRVTMTRDTSTSTVYMELSSLRSEDSAVYYCARDWYFDVWGAGTTVTVSA
VL: NIQMTQSPSSVSASVGDRVTITCRASQGISSWLAWYQQKPGKAPKLLIYAASSLQSGVPSRFSGSGSGTDFTLTISSLQPEDFATYYCQQANSFPFTFGGGTKVEIK
notes: Fab from the phage library clone, tested as bacterial culture supernatant
B2: Hu001-7 Fab (clone 7, expressed in clone supernatant) (Fab, V domains shown)
VH: QVQLVQSGAEVKKPGSSVKVSCKASGGTFSSYAISWVRQAPGQGLEWMGGIIPIFGTANYAQKFQGRVTITADESTSTAYMELSSLRSEDTAVYYCAKDIVSRVRGELVGGYYYFGLDVWGQGTTVTVSA
VL: NIQLTQSPSSLSASVGDRVTITCRASQTISSYLNWYQQKPGKAPKLLIYAASRLQSGVPSRFSGSGSGTDFTLTISSLQPEDFATYYCQQSYSTPRTFGQGTKVEIK
notes: as for B1
B3: Hu001-5 antibody (full-length human IgG1, kappa) (antibody, V domains shown)
VH: QVQLLESGGGVVQPGRSLRLSCAASGFTFSSYGMHWVRQAPGKGLEWVAVISYDGSNKYYADSVKGRFTISRDNSKNTLYLQMNSLRAEDTAVYYCAKDQVLAPVGGGLFDYWGQGTLVTVSA
VL: B2 VL with N1D, T28S, S31T, K45E, L46S, Y49F, R53S, Q55A, Q100P
notes: built as human IgG1 with kappa light chain in vectors AbVec-hIgG1 WT and AbVec-hIgKappa, expressed in Expi293 cells; also called anti-AXL antibody Hu001-5
B4: Hu001-5 Fab (clone 5, expressed in clone supernatant) (Fab, V domains shown)
VH: B3 VH
VL: B2 VL with N1D, T28S, S31T, K45E, L46S, Y49F, R53S, Q55A, Q100P
notes: as for B1
B5: Hu001-11 Fab (clone 11, expressed in clone supernatant) (Fab, V domains shown)
VH: QVQLLESGGGVVQPGRSLRLSCAASGFTFSSYGMHWVRQAPGKGLEWVAVISYDGSNKYYADSVKGRFTISRDNSKNTLYLQMNSLRAEDTAVYYCAKYGSSGPYWYFDLWGQGTLVTVSA
VL: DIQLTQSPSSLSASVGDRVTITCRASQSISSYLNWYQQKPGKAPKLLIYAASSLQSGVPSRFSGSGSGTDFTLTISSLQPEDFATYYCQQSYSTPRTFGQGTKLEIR
notes: as for B1
B6: Hu001-11 antibody (full-length human IgG1, kappa) (antibody, V domains shown)
VH: B5 VH
VL: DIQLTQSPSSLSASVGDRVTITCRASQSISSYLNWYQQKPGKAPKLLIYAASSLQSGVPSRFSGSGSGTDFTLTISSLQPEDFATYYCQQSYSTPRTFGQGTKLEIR
notes: built as human IgG1 with kappa light chain in vectors AbVec-hIgG1 WT and AbVec-hIgKappa, expressed in Expi293 cells; also called anti-AXL antibody Hu001-11

Columns and labels:
[1] = biological target: T1, human recombinant AXL protein, extracellular domain (hAXL-ECD) (human, UniProt P30530 26-451); assay: ELISA, Fab supernatant on coated hAXL-ECD, OD450; unit inferred, unit taken from the concentration axis
T1 construct: extracellular domain; Bought protein; also called antigen hAXL-ECD; hAXL-ECD protein
T1 sequence (looked up): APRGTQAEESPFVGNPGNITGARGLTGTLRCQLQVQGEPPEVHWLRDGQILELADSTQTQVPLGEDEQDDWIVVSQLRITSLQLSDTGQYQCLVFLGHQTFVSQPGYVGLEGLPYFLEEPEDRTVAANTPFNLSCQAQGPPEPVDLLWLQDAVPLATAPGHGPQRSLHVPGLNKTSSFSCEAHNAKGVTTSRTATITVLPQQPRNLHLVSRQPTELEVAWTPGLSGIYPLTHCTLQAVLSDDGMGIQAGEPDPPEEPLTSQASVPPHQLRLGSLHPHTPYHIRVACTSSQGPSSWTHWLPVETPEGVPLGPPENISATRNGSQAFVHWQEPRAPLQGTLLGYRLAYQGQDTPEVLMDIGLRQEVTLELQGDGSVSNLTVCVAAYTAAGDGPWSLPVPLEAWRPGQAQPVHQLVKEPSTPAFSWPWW
Protocol: Clones from the third round of selection were first picked up in a 96-well deep-well plate containing 300 μL of 2-YT medium and incubated overnight at 37° C. The supernatant, which contained the expressed Fab, was taken, diluted in a gradient, and added to an ELISA plate coated with 2 μg/mL of hAXL-ECD. HRP-labeled goat anti-human Fab was used as the secondary antibody (goat anti-human-HRP, ThermnoFisher, 31482, 1:6000 dilution) for detection. A higher signal value indicated a stronger affinity.

[2] = biological target: T2, AXL on CHO-AXL cells (human, UniProt P30530 26-894); assay: flow cytometry on CHO-AXL cells, pH 6.0 against pH 7.4
T2 construct: whole, on cells; The construct in the CHO-AXL cells is not described
T2 sequence (looked up): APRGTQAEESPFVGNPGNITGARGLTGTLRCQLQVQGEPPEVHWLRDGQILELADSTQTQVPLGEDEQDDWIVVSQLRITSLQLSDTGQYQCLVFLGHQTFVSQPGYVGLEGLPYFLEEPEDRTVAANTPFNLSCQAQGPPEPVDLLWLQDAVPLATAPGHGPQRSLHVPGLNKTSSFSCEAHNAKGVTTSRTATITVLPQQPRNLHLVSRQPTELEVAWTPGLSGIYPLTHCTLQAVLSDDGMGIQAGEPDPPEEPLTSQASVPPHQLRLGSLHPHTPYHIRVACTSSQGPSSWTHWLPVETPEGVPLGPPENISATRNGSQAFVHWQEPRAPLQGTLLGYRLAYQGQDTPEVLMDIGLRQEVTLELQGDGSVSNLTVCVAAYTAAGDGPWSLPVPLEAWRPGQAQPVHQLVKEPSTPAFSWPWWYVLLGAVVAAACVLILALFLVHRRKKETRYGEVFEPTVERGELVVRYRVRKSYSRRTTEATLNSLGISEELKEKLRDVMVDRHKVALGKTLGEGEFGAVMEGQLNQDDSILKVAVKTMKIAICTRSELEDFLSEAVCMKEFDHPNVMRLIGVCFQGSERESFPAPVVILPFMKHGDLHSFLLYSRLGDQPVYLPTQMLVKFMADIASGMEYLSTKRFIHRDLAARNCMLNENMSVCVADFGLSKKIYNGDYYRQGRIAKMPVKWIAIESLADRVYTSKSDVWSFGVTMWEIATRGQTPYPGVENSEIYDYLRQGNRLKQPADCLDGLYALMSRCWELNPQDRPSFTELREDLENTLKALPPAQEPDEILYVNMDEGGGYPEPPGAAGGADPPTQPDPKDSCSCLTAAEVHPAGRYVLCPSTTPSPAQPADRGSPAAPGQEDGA
Protocol: (§1) The affinity of the candidate antibody for specific binding to hAXL-ECD was detected by flow cytometry. A total of 4 clones of Hu001-5, Hu001-7, Hu001-11, and Hu001-14 were tested under acidic (pH=6.0) and neutral (pH=7.4) conditions, respectively.
(§2) CHO-AXL cells (constructed by Shanghai Sinobay Biotechnology Co. Ltd.) were cultured in a cell culture flask in DMEM/F-12 medium (10% FBS, 1% penicillin/streptomycin). After 48 hours of culture at 37° C. in an incubator containing 5% CO₂, the supernatant was discarded. The cells were collected by digestion with 0.25% trypsin and centrifuged at 800 g for 3 minutes. The supernatant was discarded and the cells were resuspended (10⁶/mL) in 2% FBS Wash Buffer. The pH of the buffer was adjusted and the cells were divided into pH6.0 and pH7.4 groups, and primary antibodies (Hu001-5 antibody, Hu001-7 antibody, Hu001-11 antibody, Hu001-14 antibody, and positive control antibody CCT301-38) were added to each group and incubated for 15 minutes at room temperature. The supernatant was discarded. Fluorescent-labeled secondary antibody IgG-Fc-PE (BioLegend, cat. No. 409304) was added and incubation was continued at room temperature for 15 min in the dark. Then, the detection was performed on the machine. A higher signal value can indicate a stronger affinity. […]

[3] = biological target: T2, AXL on CHO-AXL cells; assay: flow cytometry on CHO-AXL cells, pH 6.0 and pH 7.4, IgG-Fc-PE secondary antibody
Protocol: as §1, §2

Binder	EC50 [1]	fold of mean fluorescence intensity under the acidic condition against the neutral condition [2]	fold of mean fluorescence intensity against the positive control CCT301-38 [3]
B1	0.274 µg/mL	–	–
B2	0.214 µg/mL	–	–
B3	–	~1.5 fold	~4 fold
B4	0.292 µg/mL	–	–
B5	0.14 µg/mL	–	–
B6	–	~1.5 fold	~4 fold

Source: US20250019446A1 (SHANGHAI SINOBAY BIOTECHNOLOGY, published 2025)
